Data taken from patent publication US20220152105A1 (published 2022).

Biological target: T1, gp100 peptide on HLA-C*06:02 (human)
T1 peptide: HRRGSRSYV
Experiment: multimer staining
Procedure: T cells (1×10⁵) were incubated for 30 minutes at 37° C. in the presence of 50 nM dasatinib (LC laboratories). The cells were then washed and incubated with 5-10 μg/ml of multimer for 30 minutes at room temperature, and R-phycoerythrin-conjugated AffiniPure Fab fragment goat anti-mouse IgG1 (Jackson ImmunoResearch Laboratories) was added for 15 minutes at 4° C. Next, the cells were washed three times and costained with an anti-CD8 mAb for 15 minutes at 4° C. Dead cells were finally discriminated using the LIVE/DEAD Fixable Dead Cell Stain kit.

binding result: recognises
B1: C*06:02/gp100190-198 TCR (TCR, V domains shown)
Valpha: KNQVEQSPQSLIILEGKNCTLQCNYTVSPFSNLRWYKQDTGRGPVSLTIMTFSENTKSNGRYTATLDADTKQSSLHITASQLSDSASYICVVRGMDSSYKLIFGSGTRLLVRP
Vbeta: DAMVIQNPRYQVTQFGKPVTLSCSQTLNHNVMYWYQQKSSQAPKLLFHYYDKDFNNEADTPDNFQSRRPNTSFCFLDIRSPGLGDAAMYLCATSSEDSSNQPQHFGDGTRLSIL
